The text below walks through data of the supplement of paper PMC10567573.

The chains are these.
B1: SEC22B (parent)
chain: FPKKLAFAYLEDLHSEFDEQHGKK
B2: FBXO3 (parent)
chain: FIDTYSDVGRYIDHYAAIKKAWDD
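Further: lentivirally expressed fusions sorted by FACS into six bins by GFP to DsRed ratio, PSI derived from sequencing read proportions per bin multiplied by bin number.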

Variants of B1 are the subject of one data set. Put plainly: protein stability index of a GFP-peptide fusion (GPS, HEK-293T) (PSI 1-6); higher = more stable. To be noted: c terminus: a fixed tail appended.
As to FPKKLAFAYLEDLHSEFDEQHTKK [G22T], the protein stability index is 2.43.
Regarding FPKKLAFAYLEDLHSEFDEQHYKK [G22Y], the protein stability index came out at 1.98.
Consider FPKKLAFAYLEDLHSEFDEQHQKK [G22Q], for which the protein stability index was 2.36.
For the variant FPKKLAFAYLEDLHSEFDEQHVKK [G22V], the protein stability index was 2.12.
Same read-out and setting: then FPKKLAFAYLEDLHSEFDEQHWKK [G22W], with 2.23; and FPKKLAFAYLEDLHSEFDEQHRKK [G22R], with 2.51; and FPKKLAFAYLEDLHSEFDEQHSKK [G22S], with 2.6.
The same measure, in the same setting: the value for FPKKLAFAYLEDLHSEFDEQHGKT [K24T] was 2.5.
For the variant FPKKLAFAYLEDLHSEFDEQHGKR [K24R], the protein stability index was 2.9.
For the variant FPKKLAFAYLEDLHSEFDEQHGKW [K24W], the protein stability index stood at 2.54.
FPKKLAFAYLEDLHSEFDEQHGKF [K24F]: the protein stability index stood at 2.21.
Turning to FPKKLAFAYLEDLHSEFDEQHGKN [K24N], the protein stability index was determined as 2.32.
In the case of FPKKLAFAYLEDLHSEFDEQHGKS [K24S], the protein stability index is 2.8.
The same measure, in the same setting: then FPKKLAFAYLEDLHSEFDEQHGKV [K24V], with 2.49.
Regarding FPKKLAFAYLEDLHSEFDEQHGKI [K24I], the protein stability index came out at 1.89.
For the variant FPKKLAFAYLEDLHSEFDEQHGKQ [K24Q], the protein stability index is 2.9.
The same measure, in the same setting: then FPKKLAFAYLEDLHSEFDEQHGKE [K24E], with 2.83; and FPKKLAFAYLEDLHSEFDEQHGKP [K24P], with 2.29; and FPKKLAFAYLEDLHSEFDEQHGKA [K24A], with 2.72.
As for FPKKLAFAYLEDLHSEFDEQHGKG [K24G], the protein stability index came out at 2.11.
As to FPKKLAFAYLEDLHSEFDEQHGKY [K24Y], the protein stability index came to 2.49.
The same measure, in the same setting: then FPKKLAFAYLEDLHSEFDEQHGKM [K24M], with 2.36.
As to FPKKLAFAYLEDLHSEFDEQHGKH [K24H], the protein stability index stood at 2.59.
Take FPKKLAFAYLEDLHSEFDEQHGKC [K24C]: the protein stability index came to 2.23.
For the variant FPKKLAFAYLEDLHSEFDEQHGKL [K24L], the protein stability index was found to be 2.12.
For the variant FPKKLAFAYLEDLHSEFDEQHGKD [K24D], the protein stability index is 2.68.
For the variant FPKKLAFAYLEDLHSEFDEQHGIK [K23I], the protein stability index stood at 2.66.
As for FPKKLAFAYLEDLHSEFDEQHGCK [K23C], the protein stability index amounted to 2.3.
For FPKKLAFAYLEDLHSEFDEQHGWK [K23W], the protein stability index was 2.38.
As for FPKKLAFAYLEDLHSEFDEQHGEK [K23E], the protein stability index worked out at 2.81.
With FPKKLAFAYLEDLHSEFDEQHGDK [K23D], the protein stability index turned out to be 3.12.
FPKKLAFAYLEDLHSEFDEQHGPK [K23P]: the protein stability index was found to be 2.33.
On the same count and under the same terms, the value for FPKKLAFAYLEDLHSEFDEQHGGK [K23G] was 2.27; that for FPKKLAFAYLEDLHSEFDEQHGHK [K23H] was 2.63.
With FPKKLAFAYLEDLHSEFDEQHGVK [K23V], the protein stability index turned out to be 2.67.
As for FPKKLAFAYLEDLHSEFDEQHGQK [K23Q], the protein stability index was 2.81.
As to FPKKLAFAYLEDLHSEFDEQHGLK [K23L], the protein stability index amounted to 2.53.
As for FPKKLAFAYLEDLHSEFDEQHGSK [K23S], the protein stability index was 2.7.
For the variant FPKKLAFAYLEDLHSEFDEQHGNK [K23N], the protein stability index was found to be 2.66.
Take FPKKLAFAYLEDLHSEFDEQHGMK [K23M]: the protein stability index turned out to be 2.25.
In the case of FPKKLAFAYLEDLHSEFDEQHGRK [K23R], the protein stability index turned out to be 2.34.
Take FPKKLAFAYLEDLHSEFDEQHGFK [K23F]: the protein stability index was 2.07.
Still for that read-out and setting: then FPKKLAFAYLEDLHSEFDEQHGAK [K23A], with 2.36; and FPKKLAFAYLEDLHSEFDEQHGTK [K23T], with 1.81.
With FPKKLAFAYLEDLHSEFDEQHGYK [K23Y], the protein stability index turned out to be 2.2.

Variants of B2 are the subject of another data set. Described as above. To be noted: c terminus: a fixed tail appended.
For the variant GIDTYSDVGRYIDHYAAIKKAWDD [F1G], the protein stability index worked out at 3.05.
Same read-out and setting: then CIDTYSDVGRYIDHYAAIKKAWDD [F1C], with 2.87.
On to VIDTYSDVGRYIDHYAAIKKAWDD [F1V], for which the protein stability index turned out to be 3.28.
Consider IIDTYSDVGRYIDHYAAIKKAWDD [F1I], for which the protein stability index turned out to be 2.56.
In the case of PIDTYSDVGRYIDHYAAIKKAWDD [F1P], the protein stability index came out at 3.62.
The same measure, in the same setting: the value for RIDTYSDVGRYIDHYAAIKKAWDD [F1R] was 3.09.
With KIDTYSDVGRYIDHYAAIKKAWDD [F1K], the protein stability index was 2.47.
Turning to EIDTYSDVGRYIDHYAAIKKAWDD [F1E], the protein stability index came out at 3.21.
Turning to TIDTYSDVGRYIDHYAAIKKAWDD [F1T], the protein stability index amounted to 3.74.
Same read-out and setting: the value for NIDTYSDVGRYIDHYAAIKKAWDD [F1N] was 3.57; that for LIDTYSDVGRYIDHYAAIKKAWDD [F1L] was 3.22; that for SIDTYSDVGRYIDHYAAIKKAWDD [F1S] was 3.64.
On to MIDTYSDVGRYIDHYAAIKKAWDD [F1M], for which the protein stability index worked out at 2.79.
On the same count and under the same terms, then AIDTYSDVGRYIDHYAAIKKAWDD [F1A], with 3.39.
As for WIDTYSDVGRYIDHYAAIKKAWDD [F1W], the protein stability index was 2.58.
Still for that read-out and setting: the value for HIDTYSDVGRYIDHYAAIKKAWDD [F1H] was 3.58; that for YIDTYSDVGRYIDHYAAIKKAWDD [F1Y] was 2.09.
In the case of DIDTYSDVGRYIDHYAAIKKAWDD [F1D], the protein stability index turned out to be 3.74.
The same measure, in the same setting: then QIDTYSDVGRYIDHYAAIKKAWDD [F1Q], with 3.41; and FADTYSDVGRYIDHYAAIKKAWDD [I2A], with 2.45; and FFDTYSDVGRYIDHYAAIKKAWDD [I2F], with 2.63.
As to FYDTYSDVGRYIDHYAAIKKAWDD [I2Y], the protein stability index was 2.5.
Same read-out and setting: the value for FHDTYSDVGRYIDHYAAIKKAWDD [I2H] was 2.47; that for FSDTYSDVGRYIDHYAAIKKAWDD [I2S] was 3.14.
For the variant FKDTYSDVGRYIDHYAAIKKAWDD [I2K], the protein stability index was found to be 3.03.
On the same count and under the same terms, then FVDTYSDVGRYIDHYAAIKKAWDD [I2V], with 2.1.
With FTDTYSDVGRYIDHYAAIKKAWDD [I2T], the protein stability index stood at 2.32.
FDDTYSDVGRYIDHYAAIKKAWDD [I2D]: the protein stability index was determined as 3.65.
As for FCDTYSDVGRYIDHYAAIKKAWDD [I2C], the protein stability index amounted to 2.4.
For FWDTYSDVGRYIDHYAAIKKAWDD [I2W], the protein stability index came to 2.45.
For FPDTYSDVGRYIDHYAAIKKAWDD [I2P], the protein stability index worked out at 3.
On to FLDTYSDVGRYIDHYAAIKKAWDD [I2L], for which the protein stability index worked out at 2.39.
Same read-out and setting: the value for FRDTYSDVGRYIDHYAAIKKAWDD [I2R] was 3.03.
In the case of FGDTYSDVGRYIDHYAAIKKAWDD [I2G], the protein stability index was 3.01.
On the same count and under the same terms, the value for FQDTYSDVGRYIDHYAAIKKAWDD [I2Q] was 2.52; that for FEDTYSDVGRYIDHYAAIKKAWDD [I2E] was 3.59; that for FNDTYSDVGRYIDHYAAIKKAWDD [I2N] was 3.21.
Take FMDTYSDVGRYIDHYAAIKKAWDD [I2M]: the protein stability index worked out at 2.41.
Regarding FIMTYSDVGRYIDHYAAIKKAWDD [D3M], the protein stability index was 2.56.
Same read-out and setting: then FIETYSDVGRYIDHYAAIKKAWDD [D3E], with 2.14.
FIHTYSDVGRYIDHYAAIKKAWDD [D3H]: the protein stability index worked out at 1.81.
In the case of FINTYSDVGRYIDHYAAIKKAWDD [D3N], the protein stability index was 1.74.
Turning to FIKTYSDVGRYIDHYAAIKKAWDD [D3K], the protein stability index came to 1.91.
In the case of FIGTYSDVGRYIDHYAAIKKAWDD [D3G], the protein stability index turned out to be 3.01.
Consider FILTYSDVGRYIDHYAAIKKAWDD [D3L], for which the protein stability index is 2.3.
For FICTYSDVGRYIDHYAAIKKAWDD [D3C], the protein stability index worked out at 1.57.
For the variant FIFTYSDVGRYIDHYAAIKKAWDD [D3F], the protein stability index was found to be 1.38.
The same measure, in the same setting: the value for FIATYSDVGRYIDHYAAIKKAWDD [D3A] was 2.
In the case of FIITYSDVGRYIDHYAAIKKAWDD [D3I], the protein stability index worked out at 2.33.
